The target in assay [1] is T1, human transmembrane protein 180 (TMEM-180) (human, UniProt Q14CX5 1-517).
T1 construct: Membrane protein; also called TMET-180
T1 sequence: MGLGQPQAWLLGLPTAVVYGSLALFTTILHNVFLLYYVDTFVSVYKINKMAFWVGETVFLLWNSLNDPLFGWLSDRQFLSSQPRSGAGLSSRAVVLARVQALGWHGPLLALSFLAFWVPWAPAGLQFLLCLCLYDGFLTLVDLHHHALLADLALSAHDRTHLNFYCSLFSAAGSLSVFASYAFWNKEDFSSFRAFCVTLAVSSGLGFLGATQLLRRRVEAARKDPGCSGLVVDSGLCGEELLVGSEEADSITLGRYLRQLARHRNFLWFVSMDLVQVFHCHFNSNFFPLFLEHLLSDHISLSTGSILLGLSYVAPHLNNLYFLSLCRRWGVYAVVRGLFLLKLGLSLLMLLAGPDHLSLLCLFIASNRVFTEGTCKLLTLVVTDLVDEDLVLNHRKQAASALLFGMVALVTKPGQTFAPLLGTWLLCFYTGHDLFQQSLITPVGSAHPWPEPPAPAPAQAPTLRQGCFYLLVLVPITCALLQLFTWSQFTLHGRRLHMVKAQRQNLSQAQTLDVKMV
Description: flow cytometry on cancer cell lines, hybridoma supernatant. As to the method:
The plate was centrifuged for 3 minutes at 440×g and 4° C. followed by removing the supernatant, adding antibody-producing hybridoma culture supernatant or antibody solution to the cell pellet at 50 μL/well and suspending therein. After allowing to react for 45 minutes on ice, the plate was washed three times with a mixture of 0.1% BSA, 2 mM EDTA and PBS at 200 μL/well. The supernatant was removed and secondary antibody was added to the cell pellet at 50 μL/well followed by suspending the cells therein. AlexaFluor 647 goat anti-rat IgG (H-L) (Life Technologies Corporation) was used for the secondary antibody after diluting 400-fold with a mixture of 0.1% BSA, 2 mM EDTA and PBS. After allowing to react for 45 minutes on ice, the plate was washed three times with a mixture of 0.1% BSA, 2 mM EDTA and PBS at 200 μL/well. After removing the supernatant, 50 ng/mL of propidium iodide, 0.1% BSA, 2 mM EDTA and PBS were added to the cell pellet at 250 μL/well followed by suspending therein. The cells stained in this manner were measured using a flow cytometer such as the Guava easyCyte 8HT (Merck Millipore Corporation) followed by analysis of the resulting data using FlowJO (Tomy Digital Biology Co., Ltd.). FACS analysis was carried out using colon cancer, brain tumor and hematologic cancer.
(§1) Flow cytometry was carried out in accordance with the procedure described in the above-mentioned section 3. […] The supernatant of a culture of hybridoma producing rat IgM antibody clone 365 was used as a negative control after similarly diluting to 1 μg/mL. […] A mixture of RPMI and 10% FBS was used to dilute each of the antibodies. Furthermore, antibody concentration in the hybridoma culture supernatant was measured by rat IgM-specific ELISA (Bethyl Laboratories).

Assay [2] concerns the target T1, human transmembrane protein 180 …. As to the kind of experiment: flow cytometry, DLD-1 parent line against TMEM-180 knockout line (considerable left shift in the knockout). As to the method:
After removing the supernatant, 50 ng/mL of propidium iodide, 0.1% BSA, 2 mM EDTA and PBS were added to the cell pellet at 250 μL/well followed by suspending therein. The cells stained in this manner were measured using a flow cytometer such as the Guava easyCyte 8HT (Merck Millipore Corporation) followed by analysis of the resulting data using FlowJO (Tomy Digital Biology Co., Ltd.). FACS analysis was carried out using colon cancer, brain tumor and hematologic cancer.
as §1
A general note: A flow cytometer gives signals particle by particle.

Assay [3] shares this target. Description: FACS on cancer-derived cell lines (Table 23).

Substitutions are numbered along the chain they refer to.

B1: rat IgM antibody clone 98 (antibody, V domains shown)
VH: QVQLKESGPGLVQPSQTLSLTCTVSGFSLTRYNVHWVRQPTGKGLEWMGVIWTGGSTDYNSALKSRLSISRDTSKSQVFLKMNSLQTEDIATYYCARDLGYWGQGVMVTVSS
VL: DIVMTQTPLSLSVAIGQSASISCKSSQSLKYRDGKTYLNWVFQSPGQSPKRLIYQVSKLDSGVPDRFSGTGSETDFTLKISRVEAEDLGVYYCCQGSYSPHTFGAGTKLELK
notes: Rat IgM from a hybridoma; also called 98 antibody; IgM 98
On to B1, for which the binding result in assay [1] is “binds”.

B2: rat-human chimeric antibody clone 98 (antibody, IgG1, V domains shown)
VH: B1 VH
VL: B1 VL
notes: Clone 98 variable regions on human constant regions (IgG1), expressed in 293T cells; also called human chimeric IgG1 antibody; human chimeric IgG antibody
In the case of B2, the binding result in assay [2] is listed as “binds”.

B3: rat IgM antibody clone 101 (antibody, V domains shown)
VH: QVQLKETGPGLVQPTQTLSITCTVSGFSLTSYYMQWVRQTPGKGLEWMGFIRSGGSTEYNSEFKSRLSISRDTSKNQVFLKMNSLKTEDTGVYYCARAFYGGYYFDYWGQGVMVTVSS
VL: DIVMTQSPTSISISVGERVTMNCKASQNVGSNVDWYQQKTGQSPKLLIYKASNRYTGVPDRFTGSGSGTDFTFTISNMQAEDLAVYYCMQSNTKYTFGAGTKLELK
notes: Rat IgM
In the case of B3, the binding result in assay [1] was “binds”.

B4: anti-TMEM-180 antibody clone 1052 (antibody, V domains shown)
VH: QVQLKESGPGLMQPSETLSLTCTVSGFSLTSNGVGWVRQPLGKGLVWMGTIWTGGGTNYNSGVQSRLSISRDTSKSQVFLKMNSLQPEDTGTYYCAREYMGFDYWGQGVMVTVSS
VL: NTVMTQSPTSMFTSVGDRVTMSCKASQNVGINVGWYQQKTGQSPKRLIYWASNRDTGVPDRFTGSGSGTDFTLTISNMQAEDPAIYYCLQHNSYPRTFGGGTKLELK
notes: Rat IgM; also called 1052 antibody
Turning to B4, the binding result in assay [3] is listed as “binds”.

B5: anti-TMEM-180 antibody clone 1105 (antibody, V domains shown)
VH: B4 VH with T53S, G62A, S70T, Y99E, M100K, D103A, V109T, M110L
VL: B4 VL with T2I, F12S, T97A, K107R
notes: Rat IgM; also called 1105 antibody
For the molecule B5, in assay [3], the binding result is recorded as “binds”.

B6: anti-TMEM-180 antibody clone 212 (antibody, V domains shown)
VH: EVQLVESGGGLVQPGNSLKLSCAASGFTFSDYAMAWVRQSPKKGLEWVATIIYDGSSTYYRDSVKGRFTISRDNAKSTLYLQMDSLRSEDTATYYCATHWYWYFDFWGPGTMVTVSS
VL: DIQMTQSPASLSASLGETVSIECLASEGISNDLAWYQQKSGKSPQLLIYAASRLQDGVPSRFSGSGSGTRYSLKISGMQPEDEADYFCQQSYKYPLTFGSGTKLEIK
notes: Rat IgM
In the case of B6, the binding result in assay [1] is “binds”.

Values taken from patent US20190060480A1 (NATIONAL CANCER CENTER JAPAN, published 2019).
